Source: patent publication US6391302 (LUDWIG INSTITUTE FOR CANCER RESEARCH, dated 2002)
Changes are numbered by the printed parent chain.

T1: human FB5 (endosialin) cancer antigen (human, UniProt Q9HCU0 18-757)
T1 construct: whole, on cells; The antigen is presented on LA1-5s cells; also called FB5 antigen
T1 sequence (looked up): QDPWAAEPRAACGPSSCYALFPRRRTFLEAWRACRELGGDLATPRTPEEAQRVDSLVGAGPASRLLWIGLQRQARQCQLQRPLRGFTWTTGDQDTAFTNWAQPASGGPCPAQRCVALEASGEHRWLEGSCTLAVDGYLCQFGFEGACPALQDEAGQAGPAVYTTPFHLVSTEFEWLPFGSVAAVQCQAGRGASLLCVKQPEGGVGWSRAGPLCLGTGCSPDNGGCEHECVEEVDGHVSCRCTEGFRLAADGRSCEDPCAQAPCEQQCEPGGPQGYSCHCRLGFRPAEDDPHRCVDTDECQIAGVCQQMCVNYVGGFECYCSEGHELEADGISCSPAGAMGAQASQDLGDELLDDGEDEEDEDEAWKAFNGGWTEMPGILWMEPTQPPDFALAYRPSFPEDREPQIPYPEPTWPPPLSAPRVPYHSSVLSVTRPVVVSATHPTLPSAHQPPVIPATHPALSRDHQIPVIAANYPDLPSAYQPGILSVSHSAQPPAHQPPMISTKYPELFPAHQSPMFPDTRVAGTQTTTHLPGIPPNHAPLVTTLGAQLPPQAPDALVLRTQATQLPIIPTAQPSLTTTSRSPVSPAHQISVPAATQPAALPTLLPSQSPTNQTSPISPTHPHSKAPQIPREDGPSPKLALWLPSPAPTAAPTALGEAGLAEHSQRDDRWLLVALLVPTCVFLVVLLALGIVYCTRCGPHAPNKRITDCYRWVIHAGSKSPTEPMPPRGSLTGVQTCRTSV

B1: FB5HuVHK/HuVK (antibody, V domains shown)
VH: QVQLQESGPGLVRPSQTLSLTCTASGYTFTDYVIHWVKQPPGRGLEWIGYINPYDDDTTYNQKFKGRVTMLVDTSSNTAYLRLSSVTAEDTAVYYCARRGNSYDGYFDYSMDYWGQGSLVTVSS
VL: DIQMTQSPSSLSASVGDRVTITCRASQNVGTAVAWLQQTPGKAPKLLIYSASNRYTGVPSRFSGSGSGTDYTFTISSLQPEDIATYYCQQYTNYPMYTFGQGTKVQIK
B2: FB5HuVHK,QA,LT,VK/HuVK (antibody, V domains shown)
VH: B1 VH with R67Q, V68A, M70L, L71T, D73V, T74K
VL: B1 VL
B3: FB5HuVH/HuVK (antibody, V domains shown)
VH: B1 VH with K38R
VL: B1 VL
notes: also called reshaped antibody FB5HuVH/HuVK

Target: T1, human FB5 (endosialin) cancer antigen
Assay: mixed hemadsorption (MHA) rosetting assay on LA1-5s human neuroblastoma cells, protein A-conjugated red blood cells as indicator

Molecule | Concentration of antibody for 50% rosetting
chimeric FB5 antibody | 3 ng/mL
murine monoclonal antibody mAbFB5 | 3 ng/mL
B1 | 16 ng/mL
B2 | 16 ng/mL
B3 | 80 ng/mL
